From patent US20190127446A1 come the findings set out here.

Test [1] concerns the target soluble mouse Fcγ-receptor IIB (mouse) (UniProt P08101). Briefly: SPR. (In general: SPR reads the build-up and loss of mass on a sensor chip optically.)
The target of test [2] is soluble mouse Fcγ-receptor III (mouse) (UniProt P08508). Briefly: ratio of SPR KA values.
For test [3], the target named is soluble version of the extracellular domain of gp75. In words: SPR; soluble gp75 extracellular domain injected over immobilized antibody.
The target in test [4] is soluble mouse Fcγ-receptor IIB (mouse) (UniProt P08101). In words: SPR (Biacore), soluble receptor injected over immobilized antibody, 1:1 Langmuir.
Sequence of soluble mouse Fcγ-receptor IIB (mouse) (P08101 other isoform, or with tags, fused parts or gaps): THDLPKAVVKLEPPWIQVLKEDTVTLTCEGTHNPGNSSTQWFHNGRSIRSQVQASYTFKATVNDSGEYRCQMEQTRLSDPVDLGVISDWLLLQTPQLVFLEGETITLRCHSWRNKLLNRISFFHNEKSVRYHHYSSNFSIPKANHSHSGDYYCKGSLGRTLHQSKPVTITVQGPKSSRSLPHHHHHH
Test [5] concerns the target soluble mouse Fcγ-receptor III (mouse) (UniProt P08508). Described as above.
Test [6] deals with soluble mouse Fcγ-receptor IV (mouse). In words: SPR.
For test [7] the target is unchanged. Briefly: ratio of SPR KA values.
The target in test [8] is soluble mouse Fcγ-receptor I (mouse) (UniProt P26151). In words: SPR (Biacore), soluble receptor injected over immobilized antibody, 1:1 Langmuir.
Sequence of soluble mouse Fcγ-receptor I (mouse) (P26151 other isoform, or with tags, fused parts or gaps): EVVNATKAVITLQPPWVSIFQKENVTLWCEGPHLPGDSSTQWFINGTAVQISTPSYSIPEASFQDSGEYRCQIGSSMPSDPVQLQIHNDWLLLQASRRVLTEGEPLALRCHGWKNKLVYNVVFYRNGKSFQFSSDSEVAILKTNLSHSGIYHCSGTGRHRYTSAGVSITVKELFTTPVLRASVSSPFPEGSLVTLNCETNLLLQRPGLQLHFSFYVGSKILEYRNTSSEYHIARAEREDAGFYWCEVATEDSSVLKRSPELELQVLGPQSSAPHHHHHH
For test [9], the target named is soluble mouse Fcγ-receptor IV (mouse). Described as above.
Test [10] concerns the target soluble human Fcγ-receptor IIA (131H-allele) (human) (UniProt P12318). In words: ratio of SPR KA values.
The target in test [11] is soluble human Fcγ-receptor IIIA (158F-allele) (human) (UniProt P08637). Briefly: ratio of SPR KA values.
Sequence of soluble human Fcγ-receptor IIIA (158F-allele) (human) (P08637 17-208): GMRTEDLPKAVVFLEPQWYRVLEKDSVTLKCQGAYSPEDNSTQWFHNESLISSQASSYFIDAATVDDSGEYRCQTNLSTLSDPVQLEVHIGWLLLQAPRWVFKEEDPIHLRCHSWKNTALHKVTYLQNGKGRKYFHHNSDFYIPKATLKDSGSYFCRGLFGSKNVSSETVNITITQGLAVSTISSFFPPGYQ
The target of test [12] is soluble human Fcγ-receptor IIA (131H-allele) (human) (UniProt P12318). Briefly: SPR, soluble human Fcγ-receptor and human IgG isotype.
Sequence of soluble human Fcγ-receptor IIA (131H-allele) (human) (P12318 34-217): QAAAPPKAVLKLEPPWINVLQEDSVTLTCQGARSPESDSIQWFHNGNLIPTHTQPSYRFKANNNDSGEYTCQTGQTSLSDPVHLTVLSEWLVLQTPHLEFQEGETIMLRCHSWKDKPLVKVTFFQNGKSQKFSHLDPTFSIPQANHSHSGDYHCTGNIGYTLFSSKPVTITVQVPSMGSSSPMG
In test [13] the target is soluble human Fcγ-receptor IIB (human) (UniProt P31994). The test is described as above.
Sequence of soluble human Fcγ-receptor IIB (human) (P31994 43-217): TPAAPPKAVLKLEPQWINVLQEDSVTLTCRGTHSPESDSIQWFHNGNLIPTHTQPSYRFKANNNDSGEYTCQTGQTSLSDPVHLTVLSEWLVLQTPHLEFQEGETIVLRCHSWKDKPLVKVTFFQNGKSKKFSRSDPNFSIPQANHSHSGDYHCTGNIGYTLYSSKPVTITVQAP
The target in test [14] is soluble human Fcγ-receptor IIIA (158F-allele) (human) (UniProt P08637). Described as above.

Sequence of soluble mouse Fcγ-receptor III (mouse) (P08508 other isoform, or with tags, fused parts or gaps): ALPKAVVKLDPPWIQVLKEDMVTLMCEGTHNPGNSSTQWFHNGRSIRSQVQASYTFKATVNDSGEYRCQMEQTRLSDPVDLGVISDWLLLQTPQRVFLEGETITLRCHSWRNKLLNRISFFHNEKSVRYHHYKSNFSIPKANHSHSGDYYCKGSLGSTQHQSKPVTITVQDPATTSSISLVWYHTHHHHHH

The Kd is a measure of binding affinity in units of concentration. Lower therefore signals a tighter complex. In [1], “TA99-IgG1 (fucose-containing) (antibody)” showed a fold higher affinity than to FcγRIII of 10 fold. In addition, the A/I (ratio of affinity for sFcγRIII to that for FcγRIIB) in test [2] turned out to be 0.1. Further, the Ka in test [3] is 2.7e+09 M⁻¹; in [4], 3.33e+06 M⁻¹; in [5] it was 310000 M⁻¹. The substance further showed an equilibrium dissociation constant (Kd) in [3] of 0.38 nM.

Consider “TA99-IgG1 deficient in fucose (antibody)”, for which, in test [2], the A/I (ratio of affinity for sFcγRIII to that for FcγRIIB) came to 0.4. The Ka stood at 1.32e+06 M⁻¹ in [4] and 510000 M⁻¹ in test [5].

In test [6], “TA99-IgG2a (fucose-containing) (antibody)” gave a fold higher affinity than to FcγRIIB of 10 fold. Also, the A/I (ratio of sFcγRIV to sFcγRIIB) in [7] is 69. For the same substance, the Ka in test [3] stood at 1.6e+09 M⁻¹; in test [8], 1.6e+08 M⁻¹; in test [4], 420000 M⁻¹; in test [5], 680000 M⁻¹; in [9], 2.9e+07 M⁻¹. In addition, the Kd in test [3] came to 0.61 nM.

With “TA99-IgG2a deficient in fucose (antibody)”, in test [7], the A/I (ratio of sFcγRIV to sFcγRIIB) was found to be 92. For the same substance, the Ka stood at 1.8e+08 M⁻¹ in test [8], 3.34e+06 M⁻¹ in test [4], 1.54e+06 M⁻¹ in test [5] and 3.06e+08 M⁻¹ in test [9].

On to “TA99-IgG2b (fucose-containing) (antibody)”, for which the fold higher affinity than to FcγRIIB in [6] came out at 10 fold. Moreover, the A/I (ratio of sFcγRIV to sFcγRIIB) in test [7] worked out at 7. Besides, the Ka in [3] amounted to 1.8e+09 M⁻¹; in test [4] it was 2.23e+06 M⁻¹; in test [5], 640000 M⁻¹; in [9], 1.7e+07 M⁻¹. This substance returned a Kd in test [3] of 0.57 nM.

In the case of “TA99-IgG2b deficient in fucose (antibody)”, in test [7], the A/I (ratio of sFcγRIV to sFcγRIIB) was determined as 20. In addition, the Ka in test [4] was 1e+07 M⁻¹; in test [5], 1.06e+06 M⁻¹; in test [9], 2.03e+08 M⁻¹.

On to TA99-IgG3 (antibody), for which, in test [3], the Ka came to 1.5e+09 M⁻¹ and the Kd was 0.66 nM.

Take human IgG1 antibody isotype: in test [10], the A/I IIA/IIB (ratio of affinity to that for FcγRIIB) was 3.1. For the same substance, in [11], the A/I IIIA/IIB (ratio of affinity to that for FcγRIIB) amounted to 5.5. The Ka was 250000 M⁻¹ in test [12], 78000 M⁻¹ in [13] and 430000 M⁻¹ in [14].

Regarding “human IgG1 antibody isotype lacking fucose”, the A/I IIA/IIB (ratio of affinity to that for FcγRIIB) in [10] stood at 3.1. Also, in test [11], the A/I IIIA/IIB (ratio of affinity to that for FcγRIIB) is 76. The figures for the Ka in test [12], in test [13] and in [14] were 240000 M⁻¹, 78000 M⁻¹ and 6e+06 M⁻¹, respectively.

In the case of human IgG2 antibody isotype, the A/I IIA/IIB (ratio of affinity to that for FcγRIIB) in test [10] was 4.5. For the same substance, in test [11], the A/I IIIA/IIB (ratio of affinity to that for FcγRIIB) was 0.4. Besides, the Ka worked out at 140000 M⁻¹ in test [12], 30000 M⁻¹ in [13] and 14000 M⁻¹ in test [14].

On to “human IgG2 antibody isotype lacking fucose”, for which the A/I IIA/IIB (ratio of affinity to that for FcγRIIB) in [10] came out at 5.3. Further, the A/I IIIA/IIB (ratio of affinity to that for FcγRIIB) in test [11] turned out to be 5.7. Moreover, the Ka in [12] is 130000 M⁻¹; in test [13] it was 26000 M⁻¹; in test [14] it was 140000 M⁻¹.

Turning to human IgG4 antibody isotype, the A/I IIA/IIB (ratio of affinity to that for FcγRIIB) in [10] stood at 0.7. The Ka was found to be 35000 M⁻¹ in test [12] and 48000 M⁻¹ in test [13].
